Drawing on patent US20260337278 (published 2026), this text covers Kd for 19 molecules.

Substitutions are numbered along the chain they refer to.

B1: SI-95X4 (antibody)
chain 1: not shown
chain 2: DILMTQSPSSMSVSLGDTVSITCHSSQDINSNIGWLQQRPGKSFKGLIYHGTNLDDEVPSRFSGSGSGADYSLTISSLESEDFADYYCVQYAQFPWTFGGGTKLEIKRTVAAPSVFIFPPSDEQLKSGTASVVCLLNNFYPREAKVQWKVDNALQSGNSQESVTEQDSKDSTYSLSSTLTLSKADYEKHKVYACEVTHQGLSSPVTKSFNRGEC
B2: SI-95X9 (antibody)
chain 1: not shown
chain 2: B1 chain 2
B3: SI-95X8 (antibody)
chain 1: not shown
chain 2: B1 chain 2
B4: SI-95X10 (antibody)
chain 1: not shown
chain 2: B1 chain 2
B5: SI-95X5 (antibody)
chain 1: not shown
chain 2: B1 chain 2
B6: SI-95X6 (antibody)
chain 1: not shown
chain 2: B1 chain 2
B7: SI-95X7 (antibody)
chain 1: not shown
chain 2: B1 chain 2
B8: SI-95X12 (antibody)
chain 1: not shown
chain 2: QVQLQQSGAEVKKPGSSVKVSCKASGYTFTNYYIYWVRQAPGQGLEWIGGINPTSGGSNFNEKFKTRVTITADESSTTAYMELSSLRSEDTAFYFCTRQGLWFDSDGRGFDFWGQGTTVTVSSGGGGSGGGGSGGGGSDIQMTQSPSSLSASVGDRVTITCRSSQNIVHSNGNTYLDWYQQTPGKAPKLLIYKVSNRFSGVPSRFSGSGSGTDFTFTISSLQPEDIATYYCFQYSHVPWTFGQGTKLQITGGGGSGSGSGGGGGSGGGGSGGGGSDILMTQSPSSMSVSLGDTVSITCHSSQDINSNIGWLQQRPGKSFKGLIYHGTNLDDEVPSRFSGSGSGADYSLTISSLESEDFADYYCVQYAQFPWTFGGGTKLEIKRTVAAPSVFIFPPSDEQLKSGTASVVCLLNNFYPREAKVQWKVDNALQSGNSQESVTEQDSKDSTYSLSSTLTLSKADYEKHKVYACEVTHQGLSSPVTKSFNRGEC
B9: SI-95X16 (antibody)
chain 1: not shown
chain 2: DIQMTQSPSSLSASVGDRVTITCRSSQNIVHSNGNTYLDWYQQTPGKAPKLLIYKVSNRFSGVPSRFSGSGSGTDFTFTISSLQPEDIATYYCFQYSHVPWTFGQGTKLQITGGGGSGGGGSGGGGSQVQLQQSGAEVKKPGSSVKVSCKASGYTFTNYYIYWVRQAPGQGLEWIGGINPTSGGSNFNEKFKTRVTITADESSTTAYMELSSLRSEDTAFYFCTRQGLWFDSDGRGFDFWGQGTTVTVSSGGGGSGGGGSGSGSGGGGGSGGGGSGGGGSDILMTQSPSSMSVSLGDTVSITCHSSQDINSNIGWLQQRPGKSFKGLIYHGTNLDDEVPSRFSGSGSGADYSLTISSLESEDFADYYCVQYAQFPWTFGGGTKLEIKRTVAAPSVFIFPPSDEQLKSGTASVVCLLNNFYPREAKVQWKVDNALQSGNSQESVTEQDSKDSTYSLSSTLTLSKADYEKHKVYACEVTHQGLSSPVTKSFNRGEC
B10: SI-95X11 (antibody)
chain 1: not shown
chain 2: QVQLQQSGAEVKKPGSSVKVSCKASGYTFTNYYIYWVRQAPGQGLEWIGGINPTSGGSNFNEKFKTRVTITADESSTTAYMELSSLRSEDTAFYFCTRQGLWFDSDGRGFDFWGQGTTVTVSSGGGGSGGGGSGGGGSDIQMTQSPSSLSASVGDRVTITCRSSQNIVHSNGNTYLDWYQQTPGKAPKLLIYKVSNRFSGVPSRFSGSGSGTDFTFTISSLQPEDIATYYCFQYSHVPWTFGQGTKLQITSGSGSGGGGGSGGGGSGGGGSDILMTQSPSSMSVSLGDTVSITCHSSQDINSNIGWLQQRPGKSFKGLIYHGTNLDDEVPSRFSGSGSGADYSLTISSLESEDFADYYCVQYAQFPWTFGGGTKLEIKRTVAAPSVFIFPPSDEQLKSGTASVVCLLNNFYPREAKVQWKVDNALQSGNSQESVTEQDSKDSTYSLSSTLTLSKADYEKHKVYACEVTHQGLSSPVTKSFNRGEC
B11: SI-95X14 (antibody)
chain 1: not shown
chain 2: DIQMTQSPSSLSASVGDRVTITCRSSQNIVHSNGNTYLDWYQQTPGKAPKLLIYKVSNRFSGVPSRFSGSGSGTDFTFTISSLQPEDIATYYCFQYSHVPWTFGQGTKLQITGGGGSGGGGSGGGGSQVQLQQSGAEVKKPGSSVKVSCKASGYTFTNYYIYWVRQAPGQGLEWIGGINPTSGGSNFNEKFKTRVTITADESSTTAYMELSSLRSEDTAFYFCTRQGLWFDSDGRGFDFWGQGTTVTVSSSGSGSGGGGGSGGGGSGGGGSDILMTQSPSSMSVSLGDTVSITCHSSQDINSNIGWLQQRPGKSFKGLIYHGTNLDDEVPSRFSGSGSGADYSLTISSLESEDFADYYCVQYAQFPWTFGGGTKLEIKRTVAAPSVFIFPPSDEQLKSGTASVVCLLNNFYPREAKVQWKVDNALQSGNSQESVTEQDSKDSTYSLSSTLTLSKADYEKHKVYACEVTHQGLSSPVTKSFNRGEC
B12: SI-95X13 (antibody)
chain 1: not shown
chain 2: QVQLQQSGAEVKKPGSSVKVSCKASGYTFTNYYIYWVRQAPGQGLEWIGGINPTSGGSNFNEKFKTRVTITADESSTTAYMELSSLRSEDTAFYFCTRQGLWFDSDGRGFDFWGQGTTVTVSSGGGGSGGGGSGGGGSDIQMTQSPSSLSASVGDRVTITCRSSQNIVHSNGNTYLDWYQQTPGKAPKLLIYKVSNRFSGVPSRFSGSGSGTDFTFTISSLQPEDIATYYCFQYSHVPWTFGQGTKLQITGGGGSGGGGSGSGSGGGGGSGGGGSGGGGSDILMTQSPSSMSVSLGDTVSITCHSSQDINSNIGWLQQRPGKSFKGLIYHGTNLDDEVPSRFSGSGSGADYSLTISSLESEDFADYYCVQYAQFPWTFGGGTKLEIKRTVAAPSVFIFPPSDEQLKSGTASVVCLLNNFYPREAKVQWKVDNALQSGNSQESVTEQDSKDSTYSLSSTLTLSKADYEKHKVYACEVTHQGLSSPVTKSFNRGEC
B13: SI-95X15 (antibody)
chain 1: not shown
chain 2: DIQMTQSPSSLSASVGDRVTITCRSSQNIVHSNGNTYLDWYQQTPGKAPKLLIYKVSNRFSGVPSRFSGSGSGTDFTFTISSLQPEDIATYYCFQYSHVPWTFGQGTKLQITGGGGSGGGGSGGGGSQVQLQQSGAEVKKPGSSVKVSCKASGYTFTNYYIYWVRQAPGQGLEWIGGINPTSGGSNFNEKFKTRVTITADESSTTAYMELSSLRSEDTAFYFCTRQGLWFDSDGRGFDFWGQGTTVTVSSGGGGSGSGSGGGGGSGGGGSGGGGSDILMTQSPSSMSVSLGDTVSITCHSSQDINSNIGWLQQRPGKSFKGLIYHGTNLDDEVPSRFSGSGSGADYSLTISSLESEDFADYYCVQYAQFPWTFGGGTKLEIKRTVAAPSVFIFPPSDEQLKSGTASVVCLLNNFYPREAKVQWKVDNALQSGNSQESVTEQDSKDSTYSLSSTLTLSKADYEKHKVYACEVTHQGLSSPVTKSFNRGEC
B14: SI-95X63 (antibody)
chain 1: not shown
chain 2: B1 chain 2
B15: SI-95X68 (antibody)
chain 1: not shown
chain 2: B1 chain 2
B16: SI-95X64 (antibody)
chain 1: not shown
chain 2: B1 chain 2
B17: SI-95X51 (antibody)
chain 1: not shown
chain 2: DIVMTQSPSSVSLSLGDRVTITCHSSQDINSNIGWLQQKPGKAFKGLIYHGTNLDDGVPSRFSGSGSGADYTLTISSLQAEDFATYYCVQYAQFPWTFGPGTKLEIKRTVAAPSVFIFPPSDEQLKSGTASVVCLLNNFYPREAKVQWKVDNALQSGNSQESVTEQDSKDSTYSLSSTLTLSKADYEKHKVYACEVTHQGLSSPVTKSFNRGEC
B18: SI-95X46 (antibody)
chain 1: not shown
chain 2: EIVLTQSPSTLSVSPGERATFSCRASQSIGTNIHWYQQKPGKPPRLLIKYASESISGIPDRFSGSGSGTEFTLTISSVQSEDFAVYYCQQNNNWPTTFGPGTKLTVLRTVAAPSVFIFPPSDEQLKSGTASVVCLLNNFYPREAKVQWKVDNALQSGNSQESVTEQDSKDSTYSLSSTLTLSKADYEKHKVYACEVTHQGLSSPVTKSFNRGEC
B19: SI-95X49 (antibody)
chain 1: not shown
chain 2: B18 chain 2 with N92F

One test addresses T1, EGFRvIII (human, UniProt P00533). The experiment in a line: BLI.
In general, Kd refers to the constant that tells how readily two partners part at equilibrium. Low readings indicate tighter binding, high ones weaker binding. Consider B1, for which the Kd is 5.52 nM.
In the case of B2, the Kd is 6.16 nM.
In turn, B3 gave a Kd of 6.97 nM.
Molecule B4 displayed a Kd of 7 nM.
Same read-out and setting: the result for B5 reads 7.94 nM.
B6 gave a Kd of 6.35 nM.
The same measure, in the same setting: the result for B7 reads 8.41 nM; that for B8, 7.8 nM; that for B9, 19.4 nM.
Molecule B10 displayed a Kd of 4.87 nM.
The same measure, in the same setting: the result for B11 reads 0.428 nM; that for B12, 8.77 nM; that for B13, 0.175 nM.

Another test deals with T1, EGFRvIII. Kind of test: BLI. This is another data set of the same source. For orientation: BLI is a label-free optical method that tracks binding on a fibre tip over time.
For B14, the Kd was 0.493 nM.
B15 returned a Kd of 0.865 nM.
In the case of B16, the Kd is 0.638 nM.
Same read-out and setting: in the case of B17 it was 1.16 nM.
Molecule B18 returned a Kd of 0.358 nM.
The molecule B19 yielded a dissociation constant Kd of 0.291 nM.

The target of another test is EGFR (wild-type, His-tagged or biotinylated) (human, UniProt P00533). Kind of test: BLI.
Take B14: binding was put at a Kd of 0.497 nM.
Take B15: the Kd amounted to 1.87 nM.
B16 returned a Kd of 2.31 nM.
For the molecule B17, the Kd was 1.81 nM.
In turn, B18 yielded a Kd of 7.3 nM.
Molecule B19 came in with a Kd of 17.6 nM.
